This note sets out measurements from paper PMC7949115, “Poly(ADP-ribose) polymerase 1 regulates mitochondrial DNA repair in an NAD-dependent manner”.

Series [1] has as its target T1, PARP1 (PARP-1);Pol gamma A (catalytic subunit);Pol gamma B deltaI4 (accessory subunit) (Homo sapiens?;Homo sapiens?;Homo sapiens?) (UniProt P09874+P54098+Q9UHN1). Description: EMSA. Particulars: apparent; PARP1 titrated into Pol gamma (0.5 uM)-DNA (0.75 uM); no NAD+; Buffer RX: 25 mM Hepes pH 7.5, 140 mM KCl, 5 mM MgCl2, 5% glycerol, 1 mM BME; ITC at 25 C; EMSA incubated on ice then room temperature, 4-20% native PAGE in ….

The target in series [2] is T1, PARP1 (PARP-1);Pol gamma A (catalytic subunit);Pol gamma B deltaI4 (accessory subunit) (Homo sapiens?;Homo sapiens?;Homo sapiens?). Description: ITC. Particulars: Buffer RX: 25 mM Hepes pH 7.5, 140 mM KCl, 5 mM MgCl2, 5% glycerol, 1 mM BME; ITC at 25 C; EMSA incubated on ice then room temperature, 4-20% native PAGE in ….
For series [3], the target named is mitochondrial DNA polymerase (Pol γ) holoenzyme, heterotrimer of Pol γA and dimeric Pol γB ΔI4 (UniProt P54098). Kind of series: ITC; PARP-1 titrated into Pol γ (5 μM) to a final 10 μM, without DNA; 25 °C; Buffer RX (25 mM Hepes pH 7.5, 140 mM KCl, 5 mM MgCl2, 5% glycerol, 1 mM BME). Background: Isothermal titration calorimetry measures the heat released or taken up as one component is titrated into another.

Series [4] has as its target PARP1 (PARP-1) (UniProt P09874 1-1014). Description: ITC; 25 C, 5 mM Mg2+, no NAD+; dH -58.4 kcal/mol; Buffer RX: 25 mM Hepes pH 7.5, 140 mM KCl, 5 mM MgCl2, 5% glycerol, 1 mM BME; ITC at 25 C; EMSA incubated on ice then room temperature, 4-20% native PAGE in Tris-glycine at 0 C. Particulars: protein: recombinant; tags: His (Ni-NTA purified); self-annealed dumbbell, two hairpins, 3-nt gap.

A value given as a limit tells only on which side of the number the result lay.

T1 sequence (P09874 whole entry, stated change not applied, chain 1 of 3): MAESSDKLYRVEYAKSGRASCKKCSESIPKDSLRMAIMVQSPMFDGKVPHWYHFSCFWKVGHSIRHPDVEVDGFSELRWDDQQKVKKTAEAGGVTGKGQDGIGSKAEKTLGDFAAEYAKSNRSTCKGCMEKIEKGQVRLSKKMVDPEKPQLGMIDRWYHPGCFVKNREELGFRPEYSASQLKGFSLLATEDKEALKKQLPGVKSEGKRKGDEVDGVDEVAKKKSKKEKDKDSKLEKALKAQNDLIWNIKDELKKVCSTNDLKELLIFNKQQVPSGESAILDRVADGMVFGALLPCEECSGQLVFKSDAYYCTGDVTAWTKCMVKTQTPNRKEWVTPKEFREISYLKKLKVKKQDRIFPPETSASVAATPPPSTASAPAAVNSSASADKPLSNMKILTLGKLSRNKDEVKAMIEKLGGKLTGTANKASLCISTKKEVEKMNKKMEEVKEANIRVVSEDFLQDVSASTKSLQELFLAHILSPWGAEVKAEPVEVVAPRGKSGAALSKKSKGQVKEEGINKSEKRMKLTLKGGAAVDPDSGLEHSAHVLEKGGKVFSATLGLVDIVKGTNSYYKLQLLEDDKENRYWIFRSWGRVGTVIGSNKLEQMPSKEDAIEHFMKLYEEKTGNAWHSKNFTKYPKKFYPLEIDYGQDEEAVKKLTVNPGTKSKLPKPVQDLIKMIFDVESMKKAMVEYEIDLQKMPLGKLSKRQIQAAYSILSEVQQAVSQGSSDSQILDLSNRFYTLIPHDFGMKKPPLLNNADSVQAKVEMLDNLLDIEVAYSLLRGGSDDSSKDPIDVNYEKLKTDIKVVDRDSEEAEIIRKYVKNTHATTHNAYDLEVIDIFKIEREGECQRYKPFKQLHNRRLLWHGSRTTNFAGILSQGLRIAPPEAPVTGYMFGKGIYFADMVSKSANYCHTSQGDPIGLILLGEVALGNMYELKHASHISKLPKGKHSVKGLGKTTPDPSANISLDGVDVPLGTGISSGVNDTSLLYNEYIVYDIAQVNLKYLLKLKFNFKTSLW
T1 sequence (P54098 30-1239, stated change not applied, chain 2 of 3): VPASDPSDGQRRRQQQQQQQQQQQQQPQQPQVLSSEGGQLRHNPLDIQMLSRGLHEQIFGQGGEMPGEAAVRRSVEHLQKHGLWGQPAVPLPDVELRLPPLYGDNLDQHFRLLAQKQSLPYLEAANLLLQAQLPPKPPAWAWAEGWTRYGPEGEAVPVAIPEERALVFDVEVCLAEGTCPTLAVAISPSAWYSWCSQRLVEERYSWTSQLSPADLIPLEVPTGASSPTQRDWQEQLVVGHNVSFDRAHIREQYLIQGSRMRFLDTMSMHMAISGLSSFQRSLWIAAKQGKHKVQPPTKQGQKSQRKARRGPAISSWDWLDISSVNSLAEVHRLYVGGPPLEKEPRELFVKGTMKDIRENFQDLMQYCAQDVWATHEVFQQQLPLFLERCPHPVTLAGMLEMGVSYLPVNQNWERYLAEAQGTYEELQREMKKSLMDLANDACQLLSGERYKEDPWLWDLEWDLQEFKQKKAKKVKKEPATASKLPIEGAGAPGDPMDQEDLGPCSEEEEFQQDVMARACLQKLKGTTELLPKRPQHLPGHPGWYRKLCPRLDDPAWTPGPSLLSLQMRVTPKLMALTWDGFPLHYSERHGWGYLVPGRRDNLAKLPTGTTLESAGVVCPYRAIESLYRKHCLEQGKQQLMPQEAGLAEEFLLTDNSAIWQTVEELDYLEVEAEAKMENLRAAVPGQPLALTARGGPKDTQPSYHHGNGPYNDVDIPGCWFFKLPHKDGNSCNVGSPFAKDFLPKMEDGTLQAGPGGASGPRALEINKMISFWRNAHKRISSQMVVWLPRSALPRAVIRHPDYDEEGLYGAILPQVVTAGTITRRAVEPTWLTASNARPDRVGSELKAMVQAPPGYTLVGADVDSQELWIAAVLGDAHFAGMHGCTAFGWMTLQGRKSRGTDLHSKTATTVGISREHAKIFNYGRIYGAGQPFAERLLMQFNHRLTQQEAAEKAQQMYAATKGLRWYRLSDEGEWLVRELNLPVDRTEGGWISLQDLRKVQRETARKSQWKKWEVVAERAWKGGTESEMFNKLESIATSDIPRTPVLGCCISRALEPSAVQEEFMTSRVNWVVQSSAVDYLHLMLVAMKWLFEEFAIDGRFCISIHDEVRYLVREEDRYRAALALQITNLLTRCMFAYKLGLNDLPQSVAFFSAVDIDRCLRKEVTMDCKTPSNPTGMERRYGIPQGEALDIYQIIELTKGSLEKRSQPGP
T1 sequence (Q9UHN1 whole entry, stated change not applied, chain 3 of 3): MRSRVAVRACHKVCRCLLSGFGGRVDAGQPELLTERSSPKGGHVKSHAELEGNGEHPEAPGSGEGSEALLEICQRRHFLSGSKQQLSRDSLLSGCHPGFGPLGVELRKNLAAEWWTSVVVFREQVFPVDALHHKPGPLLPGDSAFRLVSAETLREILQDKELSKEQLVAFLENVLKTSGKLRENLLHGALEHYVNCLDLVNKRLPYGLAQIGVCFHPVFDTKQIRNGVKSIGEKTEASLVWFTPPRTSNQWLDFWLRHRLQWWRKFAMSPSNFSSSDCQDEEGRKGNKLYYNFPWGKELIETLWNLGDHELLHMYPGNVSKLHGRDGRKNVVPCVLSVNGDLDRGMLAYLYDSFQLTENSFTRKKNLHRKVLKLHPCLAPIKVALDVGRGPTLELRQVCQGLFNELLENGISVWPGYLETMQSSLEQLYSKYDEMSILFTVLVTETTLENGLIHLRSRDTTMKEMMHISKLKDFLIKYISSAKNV
PARP1 (PARP-1), sequence (P09874 whole entry): as the sequence (P09874 whole entry, stated change not applied, chain 1 of 3) above

On to “CTTTTCTGGTGAAAAGCTCGTCGGCAGCGCTTGAGCAGCGGCAGCTGGTGCTGCCGCTGCTCAAGCGCTGCCGAC [d3ntgap (75-nt dumbbell with 3-nt gap)]”, for which the Kd in series [1] was determined as 600 nM; in series [2] it was 111 nM.

Consider “Poly(ADP-ribose) polymerase 1 (from UniProt P09874 1-1014) (enzyme)”, for which the Kd in series [3] was above 10000 nM.

B1: d3ntgap (75-nt dumbbell with 3-nt gap) (structured_DNA)
DNA: CTTTTCTGGTGAAAAGCTCGTCGGCAGCGCTTGAGCAGCGGCAGCTGGTGCTGCCGCTGCTCAAGCGCTGCCGAC
As for B1, in series [4], the Kd is 36.4 nM.
